# pEC50: −log10 of the molar value.
# Key:
# [1] = biological target: mouse C-C Motif Chemokine Receptor 8 (mCCR8) (mouse) (UniProt P56484); assay: flow cytometry on activated mouse splenic CD4+ cells
# [2] = biological target: mouse C-C Motif Chemokine Receptor 8 (mCCR8) (mouse) (UniProt P56484); assay: flow cytometry on mouse thymic CD4+ cells
# [3] = biological target: mouse C-C Motif Chemokine Receptor 8 (mCCR8) (mouse) (UniProt P56484); assay: flow cytometry on mCCR8-expressing CHO cells
# [4] = biological target: mouse C-C Motif Chemokine Receptor 8 (mCCR8) (mouse) (UniProt P56484); assay: cell-based or functional assay
# mouse C-C Motif Chemokine Receptor 8 (mCCR8) (mouse), sequence (P56484 whole entry): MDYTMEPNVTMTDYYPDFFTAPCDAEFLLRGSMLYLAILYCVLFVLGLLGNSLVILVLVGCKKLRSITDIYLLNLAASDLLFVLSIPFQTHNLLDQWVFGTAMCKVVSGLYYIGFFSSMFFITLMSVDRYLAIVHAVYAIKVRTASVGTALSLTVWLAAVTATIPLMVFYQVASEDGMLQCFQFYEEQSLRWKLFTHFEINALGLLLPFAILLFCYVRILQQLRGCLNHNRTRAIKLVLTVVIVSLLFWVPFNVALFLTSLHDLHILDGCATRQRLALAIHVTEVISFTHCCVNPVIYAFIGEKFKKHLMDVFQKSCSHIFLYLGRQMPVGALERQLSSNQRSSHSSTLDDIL
substance,measurement,setting,value
"anti-CCR8-mIgG2a, mouse IgG2a isotype of rat anti-mCCR8 mAb Clone SA214G2 (BioLegend) (antibody)",pEC50,[1],8.21
same,pEC50,[2],8.40
same,pEC50,[3],8.19
same,"EC50, crosslinking of mouse FcgRIV+ luciferase reporter effector cells",[4],6.34 nM
same,"IC50, blockade of Ca flux on mCCR8-expressing CHO cells",[4],19.3 nM
